In CN113667015A:
Each block holds one binder with its values, some of them ahead of it.

Biological target: T1, 人PSGL-1 (on THP-1 cells) (human) (UniProt Q14242)
T1 sequence (looked up): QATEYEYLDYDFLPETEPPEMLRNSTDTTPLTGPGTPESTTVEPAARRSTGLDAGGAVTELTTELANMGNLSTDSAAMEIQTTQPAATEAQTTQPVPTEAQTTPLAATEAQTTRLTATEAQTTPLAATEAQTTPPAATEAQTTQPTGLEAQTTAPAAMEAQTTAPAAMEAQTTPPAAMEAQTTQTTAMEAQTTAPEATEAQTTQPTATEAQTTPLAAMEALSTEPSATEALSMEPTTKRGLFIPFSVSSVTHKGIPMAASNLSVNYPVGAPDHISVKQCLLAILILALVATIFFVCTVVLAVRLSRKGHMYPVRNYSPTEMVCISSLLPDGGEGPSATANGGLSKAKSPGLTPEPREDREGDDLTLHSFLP
Assay: flow cytometry competition on THP-1 cells; competitor recombinant human P-selectin/CD62P Fc chimera; antibody 10 μg/mL

fold decrease of CD62P+CD45+/总CD45+细胞 at 10μg/mL: 2 倍
B1: 抗体Rh001-6 (antibody, V domains shown)
VH: QVQLLESGPGLVKPSETLSLSCTVSGGSISGYYYWSWIRQPPGKGLEWIGGIYGTSGSAYYNPSLKSRVTISKDTSKNQFSLKLSSVTAADTAVYYCTRHASGGANTDLWGQGTLVTVSS
VL: DIQMTQSPLSLPVTPGQPASISCRSSQSLVHSDGKTYLNWLQQKPGQPPRRLIYQVSNRDSGVPDRFSGSGAGTDFTLKISRVEAEDVGVYYCGQGTNVPFTFGPGTKVEIK

fold decrease of CD62P+CD45+/总CD45+细胞 at 10μg/mL: 1.5 倍
B2: 抗体Rh001-22 (antibody, V domains shown)
VH: QVQLLESGPGLVKPSETLSLTCAVSGGSLTSHYWGWIRQPPGKGLEWVGSISGSSGNPEYNPSLKSRATISRDTSENQFSLRVNSVTAADTAVYHCVRWQRLENYFDSWGQGTLVTVSS
VL: DIQMTQPPSVSGDPGQRVTISCTGSTSNIGTYYVSWYRQVPGTVPKLLIYENNKRPSGVSDRFSGSKSGTSASLTITGLQPGDEADYYCLAWDDGLSAGLFGGGTKVEIK
